Source: the supplement of paper PMC9170038

Key:
MS2 coat protein [1] = experiment: apparent KD of MS2 coat protein, switch ON state; designed switch direction (-1 OFF switch, 1 ON switch): -1; higher = weaker reporter binding; details: FMN input: 0 or 200 uM; Eterna round: R93 (includes R88 designs)
In short: (§1)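 Apparent KD stands for the median, per design, of fits to normalised cluster binding curves. The curves came from titrating on-chip-transcribed RNA switches on Illumina sequencing clusters with SNAP-549-labelled MS2 coat protein, twofold from 0.7 or 1.5 nM to 3 µM. Buffer was 100 mM Tris-HCl pH 7.5, 80 mM KCl, 4 mM MgCl2, without or with constant ligand.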

MS2 coat protein [2] = experiment: apparent KD of MS2 coat protein, switch OFF state (with FMN for OFF switches, without FMN for ON switches); designed switch direction (-1 OFF switch, 1 ON switch): -1; higher = weaker reporter binding; details: FMN input: 0 or 200 uM; Eterna round: R93 (includes R88 designs)
In short: as §1

Row | Sequence | apparent KD of MS2 coat protein (MS2 coat protein [1]) | apparent KD of MS2 coat protein (MS2 coat protein [2])
1 | AAAAAACAUGAGGAUCACCCAUGUAAGGAUAUCGGAAAAGGAAAAAUAAAAAAGAAGACGAGAAGGUACACCAA [Mat - Exclusion 1 - Eli mod - D78] | 25.8 nM | 24 nM
2 | AAAAAACAUGAGGAUCACCCAUGUAAGGAUAUCGUGCAGAAAAAAAAAAAAAACUGCACGAGAAGGUACUUGGA [Brourd - Exclusion 1 - Sub 3] | 43.1 nM | 87.9 nM
3 | AAAAAACAUGAGGAUCACCCAUGUAAGGAUAUGCAAAACCCAUAUAAAAAGGGAAAAAGCAGAAGGUACAAAAA [Starry Exclusion 1.1 (wbt round 1 mod)] | 24.9 nM | 33.1 nM
4 | AAAAAACAUGAGGAUCACCCAUGUAAGGAUAUGCUAAAAAACACGGAAAAACGUGAUAGCAGAAGGUACAAAAA [66%, Wbt, 31] | 22.6 nM | 33.4 nM
5 | AAAAAACAUGAGGAUCACCCAUGUCAGGAUAUCCGGUUAAAAAAAAAAAAAAGGCGUUGGAGAAGGGACAUUCC [Chica Displaced 9 - Jieux - Exclusion 1] | 25.7 nM | 33.4 nM
6 | AAAAAACAUGAGGAUCACCCAUGUCAGGAUAUCCUAAAGAAACUCGUAAAAAGAAAUAGGAGAAGGGACAAAAA [PK4] | 53.7 nM | 46.7 nM
7 | AAAAAACAUGAGGAUCACCCAUGUCAGGAUAUCUGGAGAAACGGAAAGAAAAAGAAACGGAGAAGGGACAUAAA [Starryjess mod] | 29.6 nM | 28.5 nM
8 | AAAAAACAUGAGGAUCACCCAUGUGAGGAUAUCCAAAACAAAAAAAAACAAAACAAAAGGAGAAGGCACAUAAA [Amethyst 54] | 58.8 nM | 43.1 nM
9 | AAAAAACAUGAGGAUCACCCAUGUGAGGAUAUCCAAAAGUCAAAGAAAAAGACGAAAAGGAGAAGGCACAAAAA [Banishment 2 - Jieux - Exclusion 1] | 44.2 nM | 49.1 nM
10 | AAAAAACAUGAGGAUCACCCAUGUGAGGAUAUCCAGAAGGGAAUAAAAUAACACGAAAGGAGAAGGCGCAAAAA [Ex 1 May 35] | 35.8 nM | 31.1 nM
11 | AAAAAACAUGAGGAUCACCCAUGUGAGGAUAUGCAAAAAAAAAAAAAAAAAUAAAAAAGCAGAAGGCACAAAAA [Sh'dynasty] | 30.6 nM | 33.2 nM
12 | AAAAAACAUGAGGAUCACCCAUGUGAGGAUAUUCAAAAAAAAAAAAAAAACACAAGAAGGAGAAGGCACAAAAA [Default title] | 29.6 nM | 73 nM
13 | AAAAACGGAGGAUAUGCAAAAAAAAAAAAAAAAAAAAAAAAACAUGAGGAUCACCCAUGUAGAAGGCCGAAAAA [Diamond] | 25.6 nM | 36.9 nM
14 | AAAAACGUAGGAUAUACAUGAAAAAAAAAAAAAAAAAAAAGACAUGAGGAUCACCCAUGUAGAAGGGCGAAAAA [water's exclusion 2] | 91.9 nM | 76.8 nM
15 | AAAAAGAAAGGAUAUACGAACAUGUCAAAAGACGUGAAGGGACAUGAGGAUCACCCAUGUAGAAGGUUCAAAAA [JL Half Open 22] | 35.8 nM | 17.1 nM
16 | AAAAAGCGAGGAUAUACAUAGCUAAGACGUGUGAGCGAAAAACAUGAGGAUCACCCAUGUAGAAGGCGCAAAAA [Exclusion2-03] | 18.2 nM | 16.9 nM
17 | AAAAAGGAAGGAUAUACGAACAUGUCAAAAGACGUGAAGGGACAUGAGGAUCACCCAUGUAGAAGGUCUAAAAA [JL Half Open 26] | 32.4 nM | 22.9 nM
18 | AAAAAGGCAGGAUAUGCAUACCCACGAAAAAAAACGCUGGGACAUGAGGAUCACCCAUGUAGAAGGGCCAAAAA [Dora Explored 11 - Jieux - Exclusion 2] | 54 nM | 28.2 nM
19 | AAAAAGGUAGGAUAUACGAAAAAAAAGGGUAGAAAAAAAACACAUGAGGAUCACCCAUGUAGAAGGACCAAAAA [Ex 2 sub 1] | 26.3 nM | 77.4 nM
20 | AAAAAGUAAGGAUAUGCGAAUAAAUAAGAAGAAGAAAGAAAGCAGAAGGUACAUGAGGAUCACCCAUGUAAAAA [Ex 4 Tesla 1] | 36.3 nM | 22.5 nM
21 | AAAAAGUCAGGAUAUAGCAAAGGUCACGAAAGUGACAAAGGCUAGAAGGGACAUGAGGAUCACCCAUGUAAAAA [Fiskers Exclusion 4 D2] | 53 nM | 38.8 nM
22 | AAAAAGUCAGGAUAUCGGAAAAAAAAAAAAAAAAAAAAAAACGAGAAGGGACAUGAGGAUCACCCAUGUAUGAC [Ex 4 May 7] | 56.9 nM | 243 nM
23 | AAAAAGUCAGGAUAUGCAGAUAAAAAAACGAAAAAAAAUCUGCAGAAGGGACAUGAGGAUCACCCAUGUAAAAA [Ex 4 May 5] | 48.5 nM | 40.4 nM

Row | Sequence | apparent KD of MS2 coat protein (MS2 coat protein [1]) | apparent KD of MS2 coat protein (MS2 coat protein [2])
24 | AAAAAGUCAGGAUAUGCGAAGGCGUCUGAUAGACGAGGCUAGCAGAAGGGACAUGAGGAUCACCCAUGUGGAAG [Mat - Exclusion 4 - Eli mod - D89] | 81.3 nM | 121 nM
25 | AAAAAGUCAGGAUAUGUCAAAGGUCACGAAAGUGACAAAGGACAGAAGGGACAUGAGGAUCACCCAUGUGGAAA [Fiskers Exclusion 4D1 65% - Late G segment 1] | 82 nM | 115 nM
26 | AAAAAGUGAGGAUAUACGCUGUGGAGUAGACACAACCAGUCGUAGAAGGCACAUGAGGAUCACCCAUGUCCAAA [EX4 Malc#19] | 22 nM | 49.6 nM
27 | AAAAAGUGAGGAUAUGUCAAAAGUCACAAAAGUGACAAAAGACAGAAGGCACAUGAGGAUCACCCAUGUGAAAA [Mod of Eli - Late G + early G segment 3] | 26.8 nM | 38.8 nM
28 | AAAAAGUUAGGAUAUACAUGAGGAUCACCCAUGUACAUAUAUGGAGAAUAUAGUAGUAGUAGAAGGGACAAAAA [EX2 Malc#14] | 21 nM | 26.9 nM
29 | AAAAAUGCAGGAUAUACGUACAUGUCAAAAGACGUGAAGGGACAUGAGGAUCACCCAUGUAGAAGGGUAAAGAA [JL Neck Breaker 15] | 237 nM | 59.8 nM
30 | AAAAAUGGAGGAUAUACAUGAGGAUCACCCAUGUGUAACAAAACAAAACACAAAAAAAGUAGAAGGCCAAAAAA [Gilly Gone Silly 5 - Jieux - Exclusion 3] | 19.2 nM | 20.4 nM
31 | AAAAAUUGAGGAUAUACGAACAUGUCGAAAGACGUGAAGGGACAUGAGGAUCACCCAUGUAGAAGGCGAAAAAA [Mat - Exclusion 2 - JL mod - D68] | 33.7 nM | 20.7 nM
32 | AAAACGGUAGGAUAUACGAAAAAAAAGGGAGAACAAAAGGGACAUGAGGAUCACCCAUGUAGAAGGACCAAAAA [Diamond 89] | 40.6 nM | 84.7 nM
33 | AAAACGGUAGGAUAUACGAUUGGGAACUAGACCGAGAAACCACAUGAGGAUCACCCAUGUAGAAGGGCCAAAAA [Ex2 Malc#13] | 31.1 nM | 36.2 nM
34 | AAAAGACAUGAGGAUCACCCAUGUGAGGAUAUGCGAAAAAAAAAAAUAAAAAAAAAAAGUAGAAGGCACACCAA [Mat - Exclusion 1 - Eli mod - D56] | 177 nM | 248 nM
35 | AAAAGACAUGAGGAUCACCCAUGUUAGGAUAUGGAAAAACAAAAAAAAAAAAAAAAAACCAGAAGGAGCGAGGG [another 1 four] | 190 nM | 132 nM
36 | AAAAGCACAGGAUAUACAUAAUUAUGACGAAAGUCAUAAAAACAUGAGGAUCACCCAUGUAGAAGGGUGCAAAA [Mod of Meechl's... 64% 1] | 118 nM | 37.8 nM
37 | AAAAGCACAGGAUAUACGGGAUUAUGACGAAAGUCAUAAAAACAUGAGGAUCACCCAUGUAGAAGGGUGCAAAA [Mod of Meechl's... 64% 2] | 191 nM | 248 nM
38 | AAAAUACAUGAGGAUCACCCAUGUGAGGAUAUGCUAUGGAAAAUAAAAAUAAAACAUAGCAGAAGGCACAAAAA [Denovo 13] | 37 nM | 56.7 nM
39 | AAAAUGAAAGGAUAUACAUGAGGAUCACCCAUGUUCCAGAACAGGAGUACAAGCGAGUGUAGAAGGUUCAGCAA [Ercesois] | 22.3 nM | 42.7 nM
40 | AAACCACAUGAGGAUCACCCAUGUCAGGAUAUGAACGAAAAUAAAUAAAAAUAAAAGUUCAGAAGGGACGAAAA [66%, Wbt, 15] | 39.2 nM | 37.2 nM
41 | AAACGUUGAGGAUAUACAGAAGGGUAUAAAUCAUAAAAAACACAUGAGGAUCACCCAUGUAGAAGGCAACGAAA | 97.9 nM | 46.8 nM
42 | AAACUACUAGGAUAUGCAGAAAGGGUGUAUCCUUAAACUCCACAUGAGGAUCACCCAUGUAGAAGGAGUAAUCG [Dilaquis] | 32.4 nM | 46.4 nM
43 | AAAGGACGAGGAUAUACAUGAGGAUCACCCAUGUAAAGGGCAUAAUAAAAGAACUUAUGUAGAAGGCGUCCAAA [69%, Moding Meechl, 6] | 79.1 nM | 15.6 nM
44 | AAAGGAUCAGGAUAUGUGUGGAAAAAGUGUAUCCGAAAAAAACAUGAGGAUCACCCAUGUAGAAGGGAUCCAAA [Mod 3 of Normal (20/19) by Nando, Round 1] | 182 nM | 464 nM
45 | AAAGGCUUAGGAUAUACAGUGGUCCCAAUGGGCAUCCGAAAACAUGAGGAUCACCCAUGUAGAAGGAAGAAAAU [Raleor] | 68.5 nM | 64.7 nM
